Laboratory results reported in US20200317776A1 (published 2020).
Substitutions are numbered along the chain they refer to. Names and notes keep the numbering of the source. Read-outs that look alike come from different tables or passages of the source. Values belong to the binder of their own block, whether it stands above or below them.

Experiments:
[1] = biological target: T1, human TREM2 expressed on cells (human, UniProt Q9NZC2 19-230); experiment: cell-based or functional assay
T1 sequence: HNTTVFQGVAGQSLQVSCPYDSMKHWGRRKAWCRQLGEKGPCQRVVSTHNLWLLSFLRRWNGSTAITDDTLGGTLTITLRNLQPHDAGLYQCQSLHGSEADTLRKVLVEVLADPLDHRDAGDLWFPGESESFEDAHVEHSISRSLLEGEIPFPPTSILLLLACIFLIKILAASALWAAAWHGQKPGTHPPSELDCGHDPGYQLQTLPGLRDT

[2] = biological target: T1, human TREM2 expressed on cells; experiment: FACS, hTREM2 BW cells
[3] = biological target: T2, mouse TREM2 (mouse, UniProt Q99NH8 19-227); experiment: no effect on Dap12 phosphorylation in WT mice
T2 construct: Endogenous TREM2 of wild-type mice (peritoneal macrophages); also called murine TREM2
T2 sequence: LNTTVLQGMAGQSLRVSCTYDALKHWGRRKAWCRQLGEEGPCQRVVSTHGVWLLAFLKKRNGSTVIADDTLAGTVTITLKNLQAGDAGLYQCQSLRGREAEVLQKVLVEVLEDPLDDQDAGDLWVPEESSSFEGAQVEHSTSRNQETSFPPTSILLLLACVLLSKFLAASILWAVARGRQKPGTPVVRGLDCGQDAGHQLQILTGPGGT

[4] = biological target: T3, human TREM2/DAP12 fusion protein (human, UniProt O43914 41-113, limits assumed); experiment: cell-based or functional assay
[5] = biological target: T3, human TREM2/DAP12 fusion protein; experiment: cell-based or functional assay; remark: listed apart in the source
[6] = biological target: T3, human TREM2/DAP12 fusion protein; experiment: cell-based or functional assay; remark: listed apart in the source
[7] = biological target: T3, human TREM2/DAP12 fusion protein; experiment: cell-based or functional assay; remark: listed apart in the source
[8] = biological target: T1, human TREM2 expressed on cells; experiment: FACS, hTREM2 expressing cell line
[9] = biological target: T3, human TREM2/DAP12 fusion protein; experiment: cell-based or functional assay; remark: listed apart in the source
[10] = biological target: T3, human TREM2/DAP12 fusion protein; experiment: cell-based or functional assay; remark: listed apart in the source
[11] = biological target: T1, human TREM2 expressed on cells; experiment: cell-based or functional assay; remark: listed apart in the source
[12] = biological target: T4, human TREM2 Fc fusion (entire TREM2 ECD; only one Fc arm fused to TREM2) (human, UniProt Q9NZC2 19-174); experiment: BLI, IgG, avid
T4 construct: also called huTREM2-Fc; recombinant hTREM2
T4 sequence: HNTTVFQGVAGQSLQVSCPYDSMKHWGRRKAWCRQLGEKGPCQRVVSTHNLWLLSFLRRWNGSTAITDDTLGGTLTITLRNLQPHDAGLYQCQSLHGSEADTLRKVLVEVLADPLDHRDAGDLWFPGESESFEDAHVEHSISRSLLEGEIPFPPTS
Method in brief: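 Avid format: AHQ-loaded IgGs exposed to 100 nM human or cyno TREM2-Fc antigen, 3 min association, 3 min dissociation in buffer. Monovalent format: human TREM2-Fc loaded on AHQ sensors, exposed to 100 nM Fab. Kinetics fit to 1:1 model, run at 25° C.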

[13] = biological target: T5, cynomolgus monkey TREM2 Fc fusion (entire TREM2 ECD; only one Fc arm fused to TREM2) (cynomolgus monkey, UniProt Q9NZC2 19-174 (human entry)); experiment: BLI, Fab, monovalent
T5 construct: also called cyno TREM2-Fc
T5 chain: T4 sequence with A10E, W60R, L89F, F125V

[14] = biological target: T4, human TREM2 Fc fusion (entire TREM2 …); experiment: BLI, Fab, monovalent
[15] = biological target: T1, human TREM2 expressed on cells; experiment: FACS, hTREM2 BW cells; remark: listed apart in the source
[16] = biological target: T1, human TREM2 expressed on cells; experiment: FACS, hTREM2 BW cells; remark: listed apart in the source
Method in brief: (§1)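 Cells were BW5147.G.1.4 stably expressing human TREM2 with Dap12, or human monocyte-derived dendritic cells differentiated 6 days with GM-CSF and IL-4. Antibodies bound 1 h on ice in PBS+2% FBS, then PE anti-human secondary 30 min on ice; flow cytometry read-out as mean fluorescence intensity.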

[17] = biological target: T4, human TREM2 Fc fusion (entire TREM2 …); experiment: BLI
[18] = biological target: T3, human TREM2/DAP12 fusion protein; experiment: cell-based or functional assay; remark: listed apart in the source
[19] = biological target: T1, human TREM2 expressed on cells; experiment: cell-based or functional assay; remark: listed apart in the source
[20] = biological target: T1, human TREM2 expressed on cells; experiment: FACS, human DCs
Method in brief: as §1

B1: AL2p-58 huIgG1 (antibody)
heavy: not shown
light: DVVMTQSPDSLAVSLGERATINCRSSQSLVHSNRYTYLHWYQQKPGQSPKLLIYKVSNRFSGVPDRFSGSGSGTDFTLKISRVEAEDVGVYYCSQSTRVPYTFGQGTKLEIKRTVAAPSVFIFPPSDEQLKSGTASVVCLLNNFYPREAKVQWKVDNALQSGNSQESVTEQDSKDSTYSLSSTLTLSKADYEKHKVYACEVTHQGLSSPVTKSFNRGEC
notes: also called AL2p-58 huIgG1 WT
EC50 viability, dendritic cells D558 [1]: 0.288 nM
EC50 viability, dendritic cells D559 [1]: 0.341 nM
EC50 viability, dendritic cells D560 [1]: 0.271 nM
EC50 viability, macrophages D558 [1]: 0.005 nM
EC50 viability, macrophages D559 [1]: 0.359 nM
EC50 viability, macrophages D560 [1]: 0.469 nM
Bmax (MFI) [2]: 196000 MFI
Kd [2]: 0.63 nM
binding result [3]: no binding
Plate bound IgG, fold over unstimulated control (25 nM IgG) [4]: 9.88 fold
Soluble IgG, EC50 [4]: 4.83 nM
Soluble IgG, fold over control IgG (17 nM IgG) [4]: 9.97 fold

B3: AL2p (parental mouse anti-TREM2 antibody) (antibody, V domains shown)
VH: QVQLQQSGPELVKPGASLKISCKASGYAFSSSWMNWVKQRPGKGLEWIGRIYPGDGDTNYNGEFRVRATLTADTSSTTAYMQLSSLTSEDSAVYFCARLLRNQPGESYAMDYWGQGASVTVSS
VL: DVVMTQTPLSLPVSLGDQASISCRSSQSLVHSNGYTYLHWYLQKPGQSPKLLIYKVSNRFSGVPDRFSGSGSGTDFTLKISRVEADDLGVYFCSQSTRVPYTFGGGTKLEIK
notes: Parental mouse antibody; Fab and IgG formats under one id; also called 9F5; 9F5a
Reporter assay soluble IgG (EC50, nM) [6]: 19 nM
luciferase activation, soluble IgG, EC50 [7]: 19.3 nM
Kd [8]: 3.04 nM

B4: AL2p-6 (antibody, V domains shown)
VH: QVQLVQSGAEVKKPGSSVKVSCKASGYAFSSSWMNWVRQAPGQGLEWMGRIYPGDGDTNYAQKFQGRVTITADESTSTAYMELSSLRSEDTAVYYCARLLRNQPGESYAMDYWGQGTLVTVSS
VL: DVVMTQTPLSLSVTPGQPASISCRSSQSLVHSNWYTYLHWYLQKPGQSPQLLIYKVSNRFSGVPDRFSGSGSGTDFTLKISRVEAEDVGVYYCSQSTRVPYTFGQGTKLEIK
notes: AL2p-h50 variant; Fab and IgG formats under one id
luciferase activation, soluble IgG, EC50 [9]: 38.6 nM
Luciferase activation plate bound 33 nM IgG, FOC [10]: 5.39 FOC
Luciferase activation soluble 10 nM IgG, FOC [10]: 1.2 FOC
Survival huDCs plate bound IgG, AUC [11]: 547000 AUC
Kd [12]: 1.06 nM
Kd [13]: 1150 nM
Kd [14]: 259 nM
Kd [15]: 4.2 nM
Kd [16]: 4.2 nM

B7: AL2p-31 (antibody, V domains shown)
VH: B4 VH with S32Q, D55G, Q62R
VL: B4 VL with D1G, W34G, F60R
notes: Fab and IgG formats under one id
Reporter assay plate bound IgG (EC50, nM) [6]: 10.1 nM
Reporter assay soluble IgG (EC50, nM) [6]: 11.4 nM
luciferase activation, soluble IgG, EC50 [9]: 6.92 nM
Luciferase activation plate bound 33 nM IgG, FOC [10]: 28.2 FOC
Luciferase activation soluble 10 nM IgG, FOC [10]: 2.83 FOC
Survival huDCs plate bound IgG, AUC [11]: 1.21e+06 AUC
Kd [12]: 0.317 nM
Kd [13]: 3.44 nM
Kd [14]: 4.03 nM
Kd [15]: 1.23 nM
luciferase activation, plate bound IgG, EC50 [7]: 10.1 nM
luciferase activation, soluble IgG, EC50 [7]: 1.14 nM
BW Luc assay plate bound 7.3 nM IgG, FOC [18]: 7.49 FOC
BW Luc assay soluble 7.3 nM IgG, FOC [18]: 4.48 FOC
DC viability (AUC) [19]: 860000 AUC
Mac viability (AUC) [19]: 83700 AUC
MFI [20]: 288 MFI
Kd [8]: 0.56 nM
Kd [16]: 1 nM

Continued, in another order:

plate bound signal activation, fold over AL2p [5]: ~10 fold over AL2p
Bmax (MFI) [2]: 140000 MFI
Kd [2]: 0.36 nM
Plate bound IgG, fold over unstimulated control (25 nM IgG) [4]: 12.9 fold
Soluble IgG, EC50 [4]: 2.99 nM
Soluble IgG, fold over control IgG (17 nM IgG) [4]: 12.1 fold
B2: AL2p-58 huIgG1 PSEG (antibody)
heavy: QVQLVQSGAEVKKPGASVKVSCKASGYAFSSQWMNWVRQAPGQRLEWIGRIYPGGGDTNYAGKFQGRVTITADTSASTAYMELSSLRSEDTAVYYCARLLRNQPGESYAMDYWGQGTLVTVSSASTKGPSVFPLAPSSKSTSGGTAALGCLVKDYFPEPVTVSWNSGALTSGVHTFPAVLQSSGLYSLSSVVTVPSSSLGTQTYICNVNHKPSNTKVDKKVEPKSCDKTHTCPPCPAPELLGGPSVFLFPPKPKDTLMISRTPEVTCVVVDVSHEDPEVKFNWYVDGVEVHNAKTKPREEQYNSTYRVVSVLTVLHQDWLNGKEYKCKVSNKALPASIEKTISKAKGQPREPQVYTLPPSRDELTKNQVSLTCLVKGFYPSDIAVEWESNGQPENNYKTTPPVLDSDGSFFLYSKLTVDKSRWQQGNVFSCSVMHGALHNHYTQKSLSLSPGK
light: B1 light
notes: IgG1 with P331S and E430G; also called AL2p-58 PSEG
EC50 viability, dendritic cells D558 [1]: 0.206 nM
EC50 viability, dendritic cells D559 [1]: 0.276 nM
EC50 viability, dendritic cells D560 [1]: 0.206 nM
EC50 viability, macrophages D558 [1]: 0.001 nM
EC50 viability, macrophages D559 [1]: 0.322 nM
EC50 viability, macrophages D560 [1]: 0.426 nM

Reporter assay plate bound IgG (EC50, nM) [6]: 36.1 nM
Reporter assay soluble IgG (EC50, nM) [6]: 14 nM
fold improvement in affinity (KD) vs AL2p [17]: ~10 fold
Kd [13]: 12.4 nM
Kd [14]: 13.3 nM
luciferase activation, plate bound IgG, EC50 [7]: 36 nM
luciferase activation, soluble IgG, EC50 [7]: 14 nM
Kd [8]: 0.51 nM
Kd [16]: 0.51 nM
B5: AL2p-58 (antibody, V domains shown)
VH: B4 VH with S16A, S32Q, G44R, M48I, D55G, Q62G, E74T, T76A
VL: DVVMTQSPDSLAVSLGERATINCRSSQSLVHSNRYTYLHWYQQKPGQSPKLLIYKVSNRFSGVPDRFSGSGSGTDFTLKISRVEAEDVGVYYCSQSTRVPYTFGQGTKLEIK
notes: Fab and IgG formats under one id (explicit huIgG1 is m95, PSEG is m96)

Reporter assay plate bound IgG (EC50, nM) [6]: 206 nM
Reporter assay soluble IgG (EC50, nM) [6]: 105 nM
fold improvement in affinity (KD) vs AL2p [17]: ~10 fold
Kd [13]: 16.3 nM
Kd [14]: 14.8 nM
luciferase activation, plate bound IgG, EC50 [7]: 206 nM
luciferase activation, soluble IgG, EC50 [7]: 104 nM
BW Luc assay plate bound 7.3 nM IgG, FOC [18]: 3.54 FOC
BW Luc assay soluble 7.3 nM IgG, FOC [18]: 3.48 FOC
MFI [20]: 372 MFI
Kd [8]: 1.22 nM
Kd [16]: 1.09 nM
B6: AL2p-47 (antibody, V domains shown)
VH: B4 VH with S32D, D55E, Q62R, Q65H, Q103K
VL: B4 VL with S25T, W34A, F60V
notes: Fab and IgG formats under one id (explicit huIgG1 is m97); also called AL2-47
DC viability (AUC) [19]: 771000 AUC
Mac viability (AUC) [19]: 22100 AUC
